Laboratory results as given in patent US20230059489A1 (Pfizer, published 2023).
Positions count from the first letter of the chain named.

T1: human FLT3 (hFLT3) (human, UniProt P36888 27-543)
T1 construct: also called huFlt3; Fms-Like Tyrosine Kinase 3
T1 sequence (looked up): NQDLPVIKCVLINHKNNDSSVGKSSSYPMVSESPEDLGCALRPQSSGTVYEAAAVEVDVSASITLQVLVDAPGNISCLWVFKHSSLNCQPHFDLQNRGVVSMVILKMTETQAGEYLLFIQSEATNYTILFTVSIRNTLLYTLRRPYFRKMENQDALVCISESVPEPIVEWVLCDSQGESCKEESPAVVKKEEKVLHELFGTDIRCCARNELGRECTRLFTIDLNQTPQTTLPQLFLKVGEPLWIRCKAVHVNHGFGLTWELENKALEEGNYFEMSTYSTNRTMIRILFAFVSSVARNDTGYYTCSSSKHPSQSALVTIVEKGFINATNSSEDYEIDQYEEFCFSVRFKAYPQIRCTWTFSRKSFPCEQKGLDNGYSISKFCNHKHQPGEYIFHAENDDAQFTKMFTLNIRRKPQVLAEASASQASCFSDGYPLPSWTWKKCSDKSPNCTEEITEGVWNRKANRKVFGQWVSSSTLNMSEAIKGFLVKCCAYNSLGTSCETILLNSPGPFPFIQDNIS

T2: mouse FLT3 (mFlt3) (mouse (printed as mFlt3), UniProt Q00342 28-544, limits assumed)
T2 construct: Construct not described
T2 sequence (looked up): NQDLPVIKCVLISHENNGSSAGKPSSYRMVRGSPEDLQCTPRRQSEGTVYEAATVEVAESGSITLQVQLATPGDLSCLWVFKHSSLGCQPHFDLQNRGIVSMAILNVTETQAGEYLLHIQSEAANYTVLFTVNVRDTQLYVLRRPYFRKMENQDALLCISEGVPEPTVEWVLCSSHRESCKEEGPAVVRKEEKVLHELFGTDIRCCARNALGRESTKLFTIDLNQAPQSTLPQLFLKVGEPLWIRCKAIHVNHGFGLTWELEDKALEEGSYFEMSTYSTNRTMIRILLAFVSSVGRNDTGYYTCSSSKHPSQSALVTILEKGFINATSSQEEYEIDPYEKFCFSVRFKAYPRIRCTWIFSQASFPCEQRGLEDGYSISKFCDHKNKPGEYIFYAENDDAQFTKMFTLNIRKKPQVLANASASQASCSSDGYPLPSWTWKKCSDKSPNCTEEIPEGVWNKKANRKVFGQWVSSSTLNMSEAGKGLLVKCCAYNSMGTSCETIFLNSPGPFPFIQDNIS

B1: P9F1 (IgG format) (antibody, V domains shown)
VH: EVQLLESGGGLVQPGGSLRLSCAASGFIFSSFAMSWVRQAPGKGLEWVSDISGSGASTYYADSVKGRFTISRDNSKNTLYLQMNSLRAEDTAVYYCASASGGSGSYWPYMDPWGQGTLVTVSS
VL: QSVLTQPPSASGTPGQRVTISCSGSGSNIGSNYVYWYQQLPGTAPKLLIYRNNQRPSGVPDRFSGSKSGTSASLAISGLRSEDEADYYCAAWDGSLSRPVFGTGTKLTVL
notes: IgG format, captured by anti-human Fc
B2: P3A1 (IgG format) (antibody, V domains shown)
VH: QVQLVQSGAEVKKPGSSVKVSCKASGGTFSSYDISWVRQAPGQGLEWMGGIIPVSGRANYAQKFQGRVTITTDKSTSTAYMELSSLRSEDTAVYYCARVRPTYWPLDYWGQGTLVTVSS
VL: not shown
notes: as for B1
B3: P15F7 (IgG format) (antibody, V domains shown)
VH: EVQLLESGGGLVQPGGSLRLSCAASGFTFNNYAMNWVRQAPGKGLEWVSVISGSGGTTYYADSVKGRFTISRDNSKNTLYLQMNSLRAEDTAVYYCASGIWDLRYWGQGTLVTVSS
VL: DIQMTQSPSSLSASVGDRVTITCRASQSISTYLNWYQQKPGKAPKLLIYAASNLQSGVPSRFSGSGSGTDFTLTISSLQPEDFATYYCQQSYSIPLTFGQGTKVEIK
notes: as for B1
B4: P14G2 (IgG format) (antibody, V domains shown)
VH: B3 VH with N30S, A33V, V50A, G56A, A97V, I100L, D102A, L103G, R104G, Y105I
VL: B3 VL with T31S, A50D, N53D, S56R, S93N, I94T, L96W
notes: as for B1
B5: P12B6 (IgG format) (antibody, V domains shown)
VH: QVQLVQSGAEVKKPGSSVKVSCKASGGTFMSYAISWVRQAPGQGLEWMGGIIPIFGIANYAQKFQGRVTITADKSTSTAYMELSSLRSEDTAVYYCARETLIYPIPFELWGQGTLVTVSS
VL: EIVLTQSPGTLSLSPGERATLSCRASQIVSSSYLAWYQQKPGQAPRLLIYGASSRASGIPDRFSGSGSGTDFTLTISRLEPEDFAVYYCQQYGGSPYTFGQGTKVEIK
notes: as for B1
B6: P1B11 (IgG format) (antibody, V domains shown)
VH: QVQLVQSGAEVKKPGSSVKVSCKASGGTFRSFDISWVRQAPGQGLEWMGRIIPILGYANYAQKFQGRVTITADESTSTAYMELSSLRSEDTAVYYCASDLGAPWAGYPFDPWGQGTLVTVSS
VL: B5 VL with I28S, Y33E, G51D, S57T, G93D, G94S, Y97L
notes: as for B1
B7: P8B6 (IgG format) (antibody, V domains shown)
VH: QVQLVQSGAEVKKPGSSVKVSCKASGGTFSSYAVSWVRQAPGQGLEWMGGIIPIFGIANYAQKFQGRVTITADTSTSTAYMELSSLRSEDTAVYYCAIEGIGGDLRYDGYDAWGQGTLVTVSS
VL: B5 VL with I28S, S31H, S54F, S57A, G94S, S95D
notes: as for B1
B8: P3E10 (IgG format) (antibody, V domains shown)
VH: QVQLVQSGAEVKKPGSSVKVSCKASGGTFSSYAIQWVRQAPGQGLEWMGGIVGSWGLANYAQKFQGRVTITTDKSTSTAYMELSSLRSEDTAVYYCATSAFGELASWGQGTLVTVSS
VL: B5 VL with I28S, S30P, Y33Q, G51D, S57T, G94S, Y97L
notes: as for B1
B9: P1B4 (IgG format) (antibody, V domains shown)
VH: QVQLVQSGAEVKKPGSSVKVSCKASGGVFSRYALSWVRQAPGQGLEWMGGIIPMLGFANYAQKFQGRVTITADESTSTAYMELSSLRSEDTAVYYCATLDFGALDYWGQGTLVTVSS
VL: B5 VL with I28S, S30P, S31N, S32E, Y33Q, G51D, S57T, G94S, S95P, Y97L
notes: as for B1
B10: P1A5 (IgG format) (antibody, V domains shown)
VH: B9 VH
VL: EIVLTQSPGTLSLSPGERATLSCRASQAVDSSDLAWYQQKPGQAPRLLIYDAYTRPSGIPDRFSGSGSGTDFTLTISRLEPEDFAVYYCQQYGSSPLTFGGGTKLEIK
notes: IgG format, captured by anti-human Fc; the entry printed as P1A5 is used
B11: P5F7 (IgG format) (antibody, V domains shown)
VH: EVQLLESGGGLVQPGGSLRLSCAASGFTFSSYAMNWVRQAPGKGLEWVSSISGGGRSTYYADSVKGRFTISRDNSKNTLYLQMNSLRAEDTAVYYCARDLSPSDVGWGYGFDIWGQGTLVTVSS
VL: EIVLTQSPATLSLSPGERATLSCRASQSVSSNLAWYQQKPGQAPRLLIYDTFTRATGIPARFSGSGSGTDFTLTISRLEPEDFAVYYCQQYGSSPPTFGQGTRLEIK
notes: IgG format, captured by anti-human Fc; the VLs differ at the N-terminus; the first entry is used
B12: P4C7 (IgG format) (antibody, V domains shown)
VH: QVQLVQSGAEVKKPGSSVKVSCKASGGTFSSYTISWVRQAPGQGLEWMGGIIPAFGIANYAQKFQGRVTITADKSTSTAYMELSSLRSEDTAVYYCAKGGSYSLDYFDIWGQGTLVTVSS
VL: EIVLTQSPGTLSLSPGERATLSCRASQYVSASLLAWYQQKPGQAPRLLIYGASTRATGIPDRFSGSGSGTDFTLTISRLEPEDFAVYYCQQYARSSTFGQGTKVEIK
notes: as for B1
B13: P4H11 (IgG format) (antibody, V domains shown)
VH: B11 VH
VL: B12 VL with Y28S, A31N, S32T, L33Y, G51D, A52T, T54S, A93G, R94S, S96L
notes: as for B1
B14: P4F6 (IgG format) (antibody, V domains shown)
VH: QVQLVQSGAEVKKPGSSVKVSCKASGGTFGSYGISWVRQAPGQGLEWMGGIIPIFGTVTYAQKFQGRVTITADESTRTAYMELSSLRSEDTAVYYCARDSWSGATGASDTWGQGTLVTVSS
VL: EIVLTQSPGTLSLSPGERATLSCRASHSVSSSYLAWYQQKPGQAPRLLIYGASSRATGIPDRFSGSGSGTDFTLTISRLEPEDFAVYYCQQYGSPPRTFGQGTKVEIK
notes: as for B1

Molecular target: T1, human FLT3 (hFLT3)
Assay: SPR (Biacore T200), 37 C; IgG captured on anti-human Fc, hFLT3 as analyte
Description: All experiments were performed on a Biacore T200 surface Plasmon resonance biosensor (GE Lifesciences, Piscataway N.J.).
The sensor chip preparation was performed at 25° C. with a running buffer of 10 mM HEPES, 150 mM NaCl, 0.05% (v/v) Tween-20, pH 7.4. An anti-human Fc sensor chip was made by activating all flow cells of a Biacore CM4 sensor chip with a 1:1 (v/v) mixture of 400 mM EDC and 100 mM NHS for 7 minutes, at a flow rate of 10 μL/min. An anti-human Fc reagent (Goat Anti-Human IgG Fc, Southern Biotech Catalog #2081-01) was diluted to 30 μg/mL in 10 mM Sodium Acetate pH 4.5 and injected on all flow cells for 7 minutes at 20 μL/min. All flow cells were blocked with 100 mM ethylenediamine in 150 mM Borate buffer pH 8.5 for 7 minutes at 10 μL/min.
The experiments were performed at 37° C. using a running buffer of 10 mM HEPES, 150 mM NaCl, 0.05% (v/v) Tween-20, pH 7.4, 1 mg/mL BSA. FLT3 antibodies were captured from undiluted supernatants onto downstream flow cells (flow cells 2, 3 and 4) at a flow rate of 10 μL/min for 1 minute. Different antibodies were captured on each flow cell. Flow cell 1 was used as a reference surface. Following capture of FLT3 antibodies, analyte (buffer, hFLT3) was injected at 30 μL/min on all flow cells for two minutes. After the analyte injection, dissociation was monitored for 10 minutes followed by regeneration of all flow cells with three 1-minute injections of 75 mM Phosphoric Acid. For each captured FLT3 antibody, the following analyte injections were performed: buffer, 11 nM hFLT3, 33 nM hFLT3, 100 nM hFLT3 and 300 nM hFLT3. Buffer cycles were collected for each captured FLT3 antibody for double-referencing purposes (double-referencing as described in Myszka, D. G. Improving biosensor analysis. J. Mol. Recognit. 12, 279-284 (1999)). The double-referenced sensorgrams were fit globally to a simple 1:1 Langmuir with mass transport binding model.

| Kd [nM] | koff [s⁻¹] | kon [M⁻¹ s⁻¹] | t1/2 [min] | Binder |
| --- | --- | --- | --- | --- |
| 127 | 0.023 | 180000 | 0.5 | B1 |
| 64 | 0.006 | 95000 | 1.9 | B2 |
| 38 | 0.0055 | 140000 | 2.1 | B3 |
| 8 | 0.0011 | 140000 | 10.7 | B4 |
| 84 | 0.009 | 110000 | 1.3 | B5 |
| 45 | 0.0055 | 120000 | 2.1 | B6 |
| 2.5 | 0.00023 | 93000 | 51 | B7 |
| 106 | 0.019 | 180000 | 0.6 | B8 |
| 32 | 0.0058 | 180000 | 2 | B9 |
| 0.19 | 0.000347 | 1.78e+06 | 33 | B10 |
| 0.24 | 0.000152 | 636000 | 76 | B11 |
| 7.7 | 0.0012 | 160000 | 9.3 | B12 |
| 233 | 0.0144 | 61800 | 1 | B13 |
| 25 | 0.0035 | 140000 | 3.3 | B14 |

Molecular target: T2, mouse FLT3 (mFlt3)
Assay: SPR, Table 6, IgG format, mFlt3 column; set-up for mFlt3 not described

| Kd [nM] | Binder |
| --- | --- |
| 402 | B12 |
| 36.1 | B14 |
